# Paper PMC7824274, “Separation of Coiled-Coil Structures in Lamin A/C Is Required for the Elongation of the Filament” (Cells, 2020)
# T1: His-tagged lamin A/C 1-300 fragment, Y45C (human), P02545
# T1 chain: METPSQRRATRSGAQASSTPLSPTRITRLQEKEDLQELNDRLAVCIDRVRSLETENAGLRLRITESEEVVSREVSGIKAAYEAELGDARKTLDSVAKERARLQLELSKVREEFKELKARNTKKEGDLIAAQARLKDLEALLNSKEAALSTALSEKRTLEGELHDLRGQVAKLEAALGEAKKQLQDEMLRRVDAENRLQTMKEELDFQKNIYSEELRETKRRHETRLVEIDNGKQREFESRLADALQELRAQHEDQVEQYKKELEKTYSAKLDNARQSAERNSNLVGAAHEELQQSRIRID
# B1: lamin A/C 250-400 fragment, wild type, tag-free (domain or fragment, human, UniProt P02545 250-400, looked up)
# chain: AQHEDQVEQYKKELEKTYSAKLDNARQSAERNSNLVGAAHEELQQSRIRIDSLSAQLSQLQKQLAAKEAKLRDLEDSLARERDTSRRLLAEKEREMAEMRARMQQQLDEYQELLDIKLALDMEIHAYRKLLEGEEERLRLSPSPTSQRSRG
# notes: lamin A/C, human, residues 250-400 (C-terminal part of coil 2); His-tag cleaved with TEV protease; also called lamin 250-400; coil 2 fragment; source: E. coli BL21 (DE3), purified (cobalt-Talon, TEV cleavage, HiTrap Q, SEC); not shown: His-tag, N-terminal, cleaved
# B2: His-tagged lamin A/C 1-300 fragment, wild type (domain or fragment, human, UniProt P02545 1-300, looked up)
# chain: METPSQRRATRSGAQASSTPLSPTRITRLQEKEDLQELNDRLAVYIDRVRSLETENAGLRLRITESEEVVSREVSGIKAAYEAELGDARKTLDSVAKERARLQLELSKVREEFKELKARNTKKEGDLIAAQARLKDLEALLNSKEAALSTALSEKRTLEGELHDLRGQVAKLEAALGEAKKQLQDEMLRRVDAENRLQTMKEELDFQKNIYSEELRETKRRHETRLVEIDNGKQREFESRLADALQELRAQHEDQVEQYKKELEKTYSAKLDNARQSAERNSNLVGAAHEELQQSRIRID
# notes: lamin A/C, human, residues 1-300 (N-terminal head, coil 1a, L1, coil 1b and following residues); pProEx-HTa vector: a TEV protease cleavage site stands between the His-tag and the lamin residues; also called lamin 300 fragment; His-lamin 1-300 WT; source: E. coli BL21 (DE3), purified (cobalt-Talon, HiTrap Q, SEC); not shown: His-tag, N-terminal, kept
# B3: His-tagged lamin A/C 1-300 fragment, L35V (domain or fragment, human, UniProt P02545 1-300, looked up)
# chain: METPSQRRATRSGAQASSTPLSPTRITRLQEKEDVQELNDRLAVYIDRVRSLETENAGLRLRITESEEVVSREVSGIKAAYEAELGDARKTLDSVAKERARLQLELSKVREEFKELKARNTKKEGDLIAAQARLKDLEALLNSKEAALSTALSEKRTLEGELHDLRGQVAKLEAALGEAKKQLQDEMLRRVDAENRLQTMKEELDFQKNIYSEELRETKRRHETRLVEIDNGKQREFESRLADALQELRAQHEDQVEQYKKELEKTYSAKLDNARQSAERNSNLVGAAHEELQQSRIRID
# notes: lamin A/C, human, residues 1-300 with the EDMD mutation L35V; pProEx-HTa vector: a TEV protease cleavage site stands between the His-tag and the lamin residues; also called His-lamin 1-300 L35V; lamin 300 L35V; source: E. coli BL21 (DE3), purified (cobalt-Talon, HiTrap Q, SEC); not shown: His-tag, N-terminal, kept
# B4: His-tagged lamin A/C 1-300 fragment, L59R (domain or fragment, human, UniProt P02545 1-300, looked up)
# chain: METPSQRRATRSGAQASSTPLSPTRITRLQEKEDLQELNDRLAVYIDRVRSLETENAGRRLRITESEEVVSREVSGIKAAYEAELGDARKTLDSVAKERARLQLELSKVREEFKELKARNTKKEGDLIAAQARLKDLEALLNSKEAALSTALSEKRTLEGELHDLRGQVAKLEAALGEAKKQLQDEMLRRVDAENRLQTMKEELDFQKNIYSEELRETKRRHETRLVEIDNGKQREFESRLADALQELRAQHEDQVEQYKKELEKTYSAKLDNARQSAERNSNLVGAAHEELQQSRIRID
# notes: lamin A/C, human, residues 1-300 with the CDM1A mutation L59R; pProEx-HTa vector: a TEV protease cleavage site stands between the His-tag and the lamin residues; also called His-lamin 1-300 L59R; lamin 300 L59R; source: E. coli BL21 (DE3), purified (cobalt-Talon, HiTrap Q, SEC); not shown: His-tag, N-terminal, kept
# B5: His-tagged lamin A/C 1-300 fragment, I63S (domain or fragment, human, UniProt P02545 1-300, looked up)
# chain: METPSQRRATRSGAQASSTPLSPTRITRLQEKEDLQELNDRLAVYIDRVRSLETENAGLRLRSTESEEVVSREVSGIKAAYEAELGDARKTLDSVAKERARLQLELSKVREEFKELKARNTKKEGDLIAAQARLKDLEALLNSKEAALSTALSEKRTLEGELHDLRGQVAKLEAALGEAKKQLQDEMLRRVDAENRLQTMKEELDFQKNIYSEELRETKRRHETRLVEIDNGKQREFESRLADALQELRAQHEDQVEQYKKELEKTYSAKLDNARQSAERNSNLVGAAHEELQQSRIRID
# notes: lamin A/C, human, residues 1-300 with the EDMD mutation I63S; pProEx-HTa vector: a TEV protease cleavage site stands between the His-tag and the lamin residues; also called His-lamin 1-300 I63S; lamin 300 I63S; source: E. coli BL21 (DE3), purified (cobalt-Talon, HiTrap Q, SEC); not shown: His-tag, N-terminal, kept
# Columns and labels:
# [1] = target: B3; test: ITC; His-tagged lamin 300 fragments in the cell (25 uM), TEV-cleaved lamin 250-400 in the syringe (180 uM); PBS; 25 °C; 19 injections of 2 uL; conditions: both partners purified
# [2] = target: B4; test: as above; conditions: both partners purified
# [3] = target: B5; test: as above; conditions: both partners purified
# [4] = target: T1, His-tagged lamin A/C 1-300 fragment, …; test: as above; conditions: remark: other sources report otherwise
# [5] = target: B2; test: pull-down; His-tagged lamin 1-300 variants on Ni-NTA resin as bait, tag-free lamin 250-400 as prey; 20 mM Tris-HCl pH 8.0 with 50 mM or 150 mM NaCl; room temperature 30 min; SDS-PAGE; conditions: both partners purified
# [6] = target: B1; test: pull-down; His-tagged lamin 1-125 variants on Ni-NTA resin as bait, lamin 250-400 as prey; 20 mM Tris-HCl pH 8.0 with 50 mM NaCl; SDS-PAGE; conditions: both partners purified
# [7] = target: the molecule itself; test: not stated; purified lamin 300 fragments in solution; how the dimeric state was found is not told
Binder,binding result [6],stoichiometry N [7],other results
B1,–,–,fold decrease of the interaction (KD) against wild type [1]: ~2 fold; fold increase of the interaction (KD) against wild type [2]: ~56 fold; fold increase of the interaction (KD) against wild type [3]: ~2 fold; fold decrease of the interaction (KD) against wild type [4]: 5 fold; binding result [5]: binds
"His-tagged lamin A/C 1-125 fragment, I63S (domain or fragment, human, UniProt P02545 1-125, looked up, pProEx-HTa vector: a TEV protease cleavage site stands between the His-tag and the lamin residues; source: E. coli BL21 (DE3), purified (cobalt-Talon, HiTrap Q, SEC); not shown: His-tag, N-terminal, kept) METPSQRRATRSGAQASSTPLSPTRITRLQEKEDLQELNDRLAVYIDRVRSLETENAGLRLRSTESEEVVSREVSGIKAAYEAELGDARKTLDSVAKERARLQLELSKVREEFKELKARNTKKEG",binds,–,–
"His-tagged lamin A/C 1-125 fragment, L59R (domain or fragment, human, UniProt P02545 1-125, looked up, pProEx-HTa vector: a TEV protease cleavage site stands between the His-tag and the lamin residues; also called His-lamin 1-125 L59R; source: E. coli BL21 (DE3), purified (cobalt-Talon, HiTrap Q, SEC); not shown: His-tag, N-terminal, kept) METPSQRRATRSGAQASSTPLSPTRITRLQEKEDLQELNDRLAVYIDRVRSLETENAGRRLRITESEEVVSREVSGIKAAYEAELGDARKTLDSVAKERARLQLELSKVREEFKELKARNTKKEG",binds,–,–
"His-tagged lamin A/C 1-125 fragment, Y45C (domain or fragment, human, UniProt P02545 1-125, looked up, pProEx-HTa vector: a TEV protease cleavage site stands between the His-tag and the lamin residues; source: E. coli BL21 (DE3), purified (cobalt-Talon, HiTrap Q, SEC); not shown: His-tag, N-terminal, kept) METPSQRRATRSGAQASSTPLSPTRITRLQEKEDLQELNDRLAVCIDRVRSLETENAGLRLRITESEEVVSREVSGIKAAYEAELGDARKTLDSVAKERARLQLELSKVREEFKELKARNTKKEG",binds,–,–
B2,–,2,–
B3,–,2,–
"His-tagged lamin A/C 1-300 fragment, Y45C (domain or fragment, human, UniProt P02545 1-300, looked up, lamin A/C, human, residues 1-300 with the EDMD mutation Y45C; pProEx-HTa vector: a TEV protease cleavage site stands between the His-tag and the lamin residues; also called His-lamin 1-300 Y45C; lamin 300 Y45C; source: E. coli BL21 (DE3), purified (cobalt-Talon, HiTrap Q, SEC); not shown: His-tag, N-terminal, kept) METPSQRRATRSGAQASSTPLSPTRITRLQEKEDLQELNDRLAVCIDRVRSLETENAGLRLRITESEEVVSREVSGIKAAYEAELGDARKTLDSVAKERARLQLELSKVREEFKELKARNTKKEGDLIAAQARLKDLEALLNSKEAALSTALSEKRTLEGELHDLRGQVAKLEAALGEAKKQLQDEMLRRVDAENRLQTMKEELDFQKNIYSEELRETKRRHETRLVEIDNGKQREFESRLADALQELRAQHEDQVEQYKKELEKTYSAKLDNARQSAERNSNLVGAAHEELQQSRIRID",–,2,–
B4,–,2,–
B5,–,2,–
